Experimental data: patent publication US11535650 (RA PHARMACEUTICALS, dated 2022)
One block for each binder: values may come before it. Starred links: 1 amine or outer side, 2 acyl side, 3 side chain; linkers in the order of their positions; H or OH if unused. Positions of bridges follow the written chain, without caps; N, C: chain ends. Non-standard residues stand in square brackets, D forms with d. Primed or numbered codes have the meaning given here. No end group written: not given here. *: point of attachment. mXylyl(3) = bridging moiety between the two residues given in brackets; Phe(3-CH2NH2) = O=C([C@H](Cc1cccc(CN[*:3])c1)N[*:1])[*:2]; mXylyl = bridging moiety between residues (mXylyl(i,j)); Trp(7-aza) = N[C@@H](Cc1c[nH]c2ncccc12)C(=O)O; hPhe(3-Cl) = N[C@@H](CCc1cccc(Cl)c1)C(=O)O; ivDde = CC(C)CC(=C1C(=O)CC(C)(C)CC1=O)*; 2Nal = N[C@@H](Cc1ccc2ccccc2c1)C(=O)O; pXylylene = c1cc(C[*:2])ccc1C[*:1]; NMeD = CN[C@@H](CC(=O)O)C(=O)O; Chg = N[C@H](C(=O)O)C1CCCCC1; Phg = N[C@H](C(=O)O)c1ccccc1; Tle = CC(C)(C)[C@H](N)C(=O)O; NMeS = CN[C@@H](CO)C(=O)O; Ac5c = NC1(C(=O)O)CCCC1; Nva = CCC[C@H](N)C(=O)O; Thp = NC1(C(=O)O)CCOCC1

How the values were obtained:
human C5 protein [1] = molecular target: T1, human C5 protein (human, UniProt P01031 19-673; P01031 678-1676); assay: cell-based or functional assay
human C5 protein [2] = molecular target: T1, human C5 protein; assay: fluorescence polarization, 25 nM R3076 with increasing concentrations of C5, average of 10 to 60 minutes
Description: Polarization was measured over time, until binding reached equilibrium. K_D was determined using Graphpad Prism (using "Saturating Binding Curves, One Site—Specific Binding With Hill Slope" as the curve fit to determine K_D).

human C5 protein [3] = molecular target: T1, human C5 protein; assay: cell-based or functional assay; remark: listed apart in the source
human C5 protein [4] = molecular target: T1, human C5 protein; assay: cell-based or functional assay; remark: listed apart in the source
human C5 protein [5] = molecular target: T1, human C5 protein; assay: competitive fluorescence polarization vs probe R3076, average of two experiments
Description: (§1) Test articles listed in Table 7 were subsequently diluted in DMSO then assay buffer, comprising 10 2-fold dilutions and were then added to the assay plate in triplicate, rapidly. The assay plate was then incubated in the Paradigm (Molecular Devices, Sunnyvale, Calif.) plate reader for 60 minutes at 25° C.
(§2) After incubation for 60 minutes, the plate was read using the Paradigm FP protocol (Molecular Devices, Sunnyvale, Calif.) and raw polarization values were imported into Graphpad Prism.

human C5 protein [6] = molecular target: T1, human C5 protein; assay: competitive fluorescence polarization vs probe R3076, Exp 1
Description: as §1, §2

human C5 protein [7] = molecular target: T1, human C5 protein; assay: competitive fluorescence polarization vs probe R3076, Exp 2
Description: as §1, §2

Binder: Ac-CAERFCD[Tle]Y[Trp(7-aza)]EYP[Phg]K(C16) (linker 1-6 via mXylyl(3)) [R3189]
Avg. IC50, hemolysis assay (C5 depleted sera + purified human C5) (human C5 protein [1]): 81.5 nM

Binder: Ac-KVERFD[NMeD][Tle]YWEYP[Chg]K(C16) (lactam 1-6) [R3195]
Avg. IC50, hemolysis assay (C5 depleted sera + purified human C5) (human C5 protein [1]): 62.5 nM

Binder: [(desamino)Cys]VERFC[NMeD][Tle]Y[Trp(7-aza)]EYP[Chg]K(C16) (bridge 1-6) [R3198]
Avg. IC50, hemolysis assay (C5 depleted sera + purified human C5) (human C5 protein [1]): 142 nM

Kd (human C5 protein [2]): 8.07 nM
B1: R3076 (peptide)
peptide: VVYENGYWEYPGVK
modifications: Ac-Nvl-Nvl-Y-E-N-Tbg-Y-azaTrp-E-Y-P-Chg-Nvl-K-(BODIPY-TMR-X) NH2
notes: R3072 with BODIPY-TMR dye on the C-terminal lysine; fluorescent probe of the FP assay; also called Probe R3076; labeled probe
Avg. IC50, human hemolysis assay (complete human sera) (human C5 protein [3]): 297 nM

Binder: Ac-[Nva]C[Phg]T[Trp(7-aza)]EY[NMeS]HC[Nva]P[Nva]-NH2 (linker 2-10 via mXylyl) [R3008]
Avg. IC50, human hemolysis assay (complete human sera) (human C5 protein [3]): 97 nM | IC50, C5a EIA on supernatant of human RBC hemolysis assay (human C5 protein [4]): 54.5 nM | IC50, membrane attack complex (MAC) EIA on supernatant of human RBC hemolysis assay (human C5 protein [4]): 33 nM

Binder: [(desamino)Cys][dA]ERFC[NMeD][Tle]Y[Trp(7-aza)]EYP[Chg]K(C16) (bridge 1-6) [R3199]
Avg. IC50, hemolysis assay (C5 depleted sera + purified human C5) (human C5 protein [1]): 112 nM

IC50 (human C5 protein [5]): 68.4 nM | Ki (human C5 protein [5]): 9.54 nM | IC50 (human C5 protein [6]): 72.7 nM | Ki (human C5 protein [6]): 10.4 nM | IC50 (human C5 protein [7]): 64.1 nM | Ki (human C5 protein [7]): 8.69 nM
B2: R3003 (peptide)
peptide: Ac-[Nva]CYEN[Tle]Y[Trp(7-aza)]EYP[Phg]P-NH2
SMILES: CCC[C@H](NC(C)=O)C(=O)N[C@@H](CS)C(=O)N[C@@H](Cc1ccc(O)cc1)C(=O)N[C@@H](CCC(=O)O)C(=O)N[C@@H](CC(N)=O)C(=O)N[C@H](C(=O)N[C@@H](Cc1ccc(O)cc1)C(=O)N[C@@H](Cc1c[nH]c2ncccc12)C(=O)N[C@@H](CCC(=O)O)C(=O)N[C@@H](Cc1ccc(O)cc1)C(=O)N1CCC[C@H]1C(=O)N[C@H](C(=O)N1CCC[C@H]1C(N)=O)c1ccccc1)C(C)(C)C
Avg. IC50, human hemolysis assay (complete human sera) (human C5 protein [3]): 13.9 nM

Binder: Ac-CVERFCD[Tle]Y[Trp(7-aza)]E[hPhe(3-Cl)]P[Chg][Nva] (linker 1-6 via mXylyl(3)) [R3179]
Avg. IC50, hemolysis assay (C5 depleted sera + purified human C5) (human C5 protein [1]): 83 nM

Binder: Ac-KVERFD[NMeD][Tle]YWEYP[Chg]K(ivDde) (lactam 1-6) [R3197]
Avg. IC50, hemolysis assay (C5 depleted sera + purified human C5) (human C5 protein [1]): 4 nM

Binder: Ac-CVERFCD[Tle]Y[Phe(3-CH2NH2)]EYP[Chg][Nva] (linker 1-6 via mXylyl(3)) [R3181]
Avg. IC50, hemolysis assay (C5 depleted sera + purified human C5) (human C5 protein [1]): 1500 nM

IC50 (human C5 protein [5]): > 1000 nM | Ki (human C5 protein [5]): > 1000 nM | IC50 (human C5 protein [6]): > 1000 nM | Ki (human C5 protein [6]): > 1000 nM | IC50 (human C5 protein [7]): > 1000 nM | Ki (human C5 protein [7]): > 1000 nM
B3: R3023 (peptide)
peptide: Ac-YPYC[Phg][Trp(7-aza)][Tle]E[Nva]NY[Nva]E-NH2
SMILES: CCC[C@H](NC(=O)[C@H](Cc1ccc(O)cc1)NC(=O)[C@H](CC(N)=O)NC(=O)[C@H](CCC)NC(=O)[C@H](CCC(=O)O)NC(=O)[C@@H](NC(=O)[C@H](Cc1c[nH]c2ncccc12)NC(=O)[C@@H](NC(=O)[C@H](CS)NC(=O)[C@H](Cc1ccc(O)cc1)NC(=O)[C@@H]1CCCN1C(=O)[C@H](Cc1ccc(O)cc1)NC(C)=O)c1ccccc1)C(C)(C)C)C(=O)N[C@@H](CCC(=O)O)C(N)=O
notes: negative control in the FP assays; also called control polypeptide; scrambled polypeptide variant of R3002
Avg. IC50, human hemolysis assay (complete human sera) (human C5 protein [3]): > 100000 nM

Binder: VERFCDGYWEYPGV ([cyclo-thioalkyl(1,5)]V-E-R-F-C-D-Tbg-Y-azaTrp-E-Y-P-Chg-Nvl) [R3184]
Avg. IC50, hemolysis assay (C5 depleted sera + purified human C5) (human C5 protein [1]): 4 nM

Binder: VCYENGYWEYPGV (Ac-Nvl-C-Y-E-N-Tbg-Y-azaTrp-E-Y-P-Phg-Nvl-NH2) [R3002]
IC50, C5a EIA on supernatant of human RBC hemolysis assay (human C5 protein [4]): 5.4 nM

Binder: Ac-CVERFC[Thp][Tle]Y[Trp(7-aza)]EYP[Chg][Nva] (linker 1-6 via mXylyl(3)) [R3186]
Avg. IC50, hemolysis assay (C5 depleted sera + purified human C5) (human C5 protein [1]): 18 nM

B4: R3192 (peptide)
peptide: Ac-KVERFD[NMeD][Tle]Y[Trp(7-aza)]EYP[Chg]K-NH2
modifications: lactam 1-6
SMILES: CC(=O)N[C@H]1CCCCNC(=O)C[C@@H](C(=O)N(C)[C@@H](CC(=O)O)C(=O)N[C@H](C(=O)N[C@@H](Cc2ccc(O)cc2)C(=O)N[C@@H](Cc2c[nH]c3ncccc23)C(=O)N[C@@H](CCC(=O)O)C(=O)N[C@@H](Cc2ccc(O)cc2)C(=O)N2CCC[C@H]2C(=O)N[C@H](C(=O)N[C@@H](CCCCN)C(N)=O)C2CCCCC2)C(C)(C)C)NC(=O)[C@H](Cc2ccccc2)NC(=O)[C@H](CCCNC(=N)N)NC(=O)[C@H](CCC(=O)O)NC(=O)[C@H](C(C)C)NC1=O
Avg. IC50, hemolysis assay (C5 depleted sera + purified human C5) (human C5 protein [1]): 1.5 nM

IC50 (human C5 protein [5]): 280 nM | Ki (human C5 protein [5]): 64.3 nM | IC50 (human C5 protein [6]): 267 nM | Ki (human C5 protein [6]): 71.1 nM | IC50 (human C5 protein [7]): 293 nM | Ki (human C5 protein [7]): 57.6 nM
Binder: Ac-[Nva]C[Phg]T[Trp(7-aza)]EY[NMeS]HC[Nva]-NH2 (linker 2-10 via pXylylene) [R3050]
Avg. IC50, human hemolysis assay (complete human sera) (human C5 protein [3]): 42.9 nM

IC50 (human C5 protein [5]): 6820 nM | Ki (human C5 protein [5]): 1500 nM | IC50 (human C5 protein [6]): 6060 nM | Ki (human C5 protein [6]): 1400 nM | IC50 (human C5 protein [7]): 7580 nM | Ki (human C5 protein [7]): 1580 nM
Binder: Ac-C[Phg]T[Trp(7-aza)]EY[NMeS]HC[Nva]P[Nva]-NH2 (linker 1-9 via mXylyl) [R3014]
Avg. IC50, human hemolysis assay (complete human sera) (human C5 protein [3]): 1420 nM

IC50 (human C5 protein [5]): 4230 nM | Ki (human C5 protein [5]): 874 nM | IC50 (human C5 protein [6]): 4330 nM | Ki (human C5 protein [6]): 866 nM | IC50 (human C5 protein [7]): 4120 nM | Ki (human C5 protein [7]): 882 nM
Binder: MCVERFCDVYWE-NH2 (linker 2-7 via mXylyl) [R3043]
Avg. IC50, human hemolysis assay (complete human sera) (human C5 protein [3]): 934 nM

Binder: Ac-CVERFCD[Tle]Y[Trp(7-aza)]E[2Nal]P[Chg][Nva] (linker 1-6 via mXylyl(3)) [R3180]
Avg. IC50, hemolysis assay (C5 depleted sera + purified human C5) (human C5 protein [1]): 29 nM

IC50 (human C5 protein [5]): 278 nM | Ki (human C5 protein [5]): 80 nM | IC50 (human C5 protein [6]): 295 nM | Ki (human C5 protein [6]): 73.2 nM | IC50 (human C5 protein [7]): 261 nM | Ki (human C5 protein [7]): 86.9 nM
Binder: Ac-[Nva]C[Phg]T[Trp(7-aza)]EY[NMeS]HC[Nva]P-NH2 (linker 2-10 via mXylyl) [R3011]
Avg. IC50, human hemolysis assay (complete human sera) (human C5 protein [3]): 112 nM

Binder: Ac-KVERFD[NMeD][Tle]Y[Trp(7-aza)]EYP[Chg]K(C16)-NH2 (lactam 1-6) [R3194]
Avg. IC50, hemolysis assay (C5 depleted sera + purified human C5) (human C5 protein [1]): 15.5 nM

Binder: Ac-KVERFD[NMeD][Tle]YWEYP[Chg]K (lactam 1-6) [R3196]
Avg. IC50, hemolysis assay (C5 depleted sera + purified human C5) (human C5 protein [1]): 3 nM

Binder: Ac-CVERFC[Ac5c][Tle]Y[Trp(7-aza)]EYP[Chg][Nva] (linker 1-6 via mXylyl(3)) [R3185]
Avg. IC50, hemolysis assay (C5 depleted sera + purified human C5) (human C5 protein [1]): 12.5 nM
